T1: 6xHis-SUMO-tagged MYO18A motor domain (aa 408-1,242) (UniProt Q92614 408-1242)
T1 sequence (looked up): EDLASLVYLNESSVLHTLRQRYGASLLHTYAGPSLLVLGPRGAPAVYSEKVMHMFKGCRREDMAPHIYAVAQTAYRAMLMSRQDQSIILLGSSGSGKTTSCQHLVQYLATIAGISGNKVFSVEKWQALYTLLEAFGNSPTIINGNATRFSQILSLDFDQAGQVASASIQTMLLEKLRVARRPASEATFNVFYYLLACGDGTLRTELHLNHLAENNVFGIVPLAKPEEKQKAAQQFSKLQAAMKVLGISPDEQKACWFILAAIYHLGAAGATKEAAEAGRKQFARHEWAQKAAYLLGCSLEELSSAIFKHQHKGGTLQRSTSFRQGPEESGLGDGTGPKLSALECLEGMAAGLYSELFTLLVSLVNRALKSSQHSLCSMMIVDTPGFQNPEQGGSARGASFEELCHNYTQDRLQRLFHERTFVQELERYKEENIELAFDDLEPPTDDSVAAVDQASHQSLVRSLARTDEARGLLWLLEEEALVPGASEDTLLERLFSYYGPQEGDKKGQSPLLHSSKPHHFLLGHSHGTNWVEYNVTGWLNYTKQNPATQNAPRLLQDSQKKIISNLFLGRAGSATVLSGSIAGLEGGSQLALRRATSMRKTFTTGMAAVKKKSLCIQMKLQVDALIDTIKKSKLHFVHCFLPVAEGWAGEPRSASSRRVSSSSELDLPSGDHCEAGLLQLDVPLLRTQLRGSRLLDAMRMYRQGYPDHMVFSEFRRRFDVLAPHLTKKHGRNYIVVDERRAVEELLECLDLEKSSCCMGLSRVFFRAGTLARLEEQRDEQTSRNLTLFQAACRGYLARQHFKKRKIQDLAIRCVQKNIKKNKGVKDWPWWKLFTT


Target: T1, 6xHis-SUMO-tagged MYO18A motor domain …
Test: pull-down

fold of interaction versus WT	Binder
2.2 fold	GOLPH3 DQ-DVQ phosphomimetic mutant, purified, bacterially expressed (natural protein, UniProt Q9H4A6 1-298, looked up) MTSLTQRSSGLVQRRTEASRNAADKERAAGGGAGSSEDDAQSRRDEQDDDDKGDSKETRLTLMEEVLLLGLKDREGYTSFWNDCISSGLRGCMLIELALRGRLQLEACGMRRKSLLTRKVICKSDAPTGDVLLDEALKHVKEDQPPEDVQNWIELLSGETWNPLKLHYQLRNVRERLAKNLVEKGVLTTEKQNFLLFDMTTHPLTNNNIKQRLIKKVQEAVLDKWVNDPHRMDRRLLALIYLAHASDVLENAFAPLLDEQYDLATKRVRQLLDLDPEVECLKANTNEVLWAVVAAFTK
1.9 fold	GOLPH3 EQ-EVQ phosphomimetic mutant, purified, bacterially expressed (natural protein, UniProt Q9H4A6 1-298, looked up) MTSLTQRSSGLVQRRTEASRNAADKERAAGGGAGSSEDDAQSRRDEQDDDDKGDSKETRLTLMEEVLLLGLKDREGYTSFWNDCISSGLRGCMLIELALRGRLQLEACGMRRKSLLTRKVICKSDAPTGDVLLDEALKHVKEEQPPEEVQNWIELLSGETWNPLKLHYQLRNVRERLAKNLVEKGVLTTEKQNFLLFDMTTHPLTNNNIKQRLIKKVQEAVLDKWVNDPHRMDRRLLALIYLAHASDVLENAFAPLLDEQYDLATKRVRQLLDLDPEVECLKANTNEVLWAVVAAFTK

Source: publication PMC4018323 (Cell, 2014)
